{
  "source": "paper PMC5104691",
  "about": "“Crystal Structure of the Neuropilin-1 MAM Domain: Completing the Neuropilin-1 Ectodomain Picture” (Structure(London, England:1993), 2016)",
  "proteins": {"B1": {"name": "MAM domain of human neuropilin-1 (residues 628-813), wild-type glycosylated (domain or fragment, UniProt O14786 628-813, looked up)", "chain": "ATEKPTVIDSTIQSEFPTYGFNCEFGWGSHKTFCHWEHDNHVQLKWSVLTSKTGPIQDHTGDGNFIYSQADENQKGKVARLVSPVVYSQNSAHCMTFWYHMSGSHVGTLRVKLRYQKPEEYDQLVWMAIGHQGDHWKEGRVLLHKSLKLYQVIFEGEIGKGNLGGIAVDDISINNHISQEDCAKPA", "modifications": "glycosylated at serine and threonine residues upstream of the predicted MAM domain (O-linked glycosylation sites)", "notes": "Neuropilin-1 (NRP1), human, amino acid residues 628-813 (linker region and MAM/c domain); also called NRP1 MAM domain; NRP1 MAM; source: FreeStyle HEK293-F cells, transfected, secreted"}},
  "biological_target": "the molecule itself",
  "experiment": "ITC; dissociation by dilution: 900 μM MAM domain in the syringe titrated into buffer (20 mM Tris pH 8.0, 100 mM NaCl), one 0.4 μL and 19 injections of 2 μL, at 15°C and 20°C; dimer or oligomer to monomers",
  "data": [
    {"protein": "B1", "values": [
      {"measurement": "Kd", "result": "> 900", "unit": "µM"}
    ]}
  ]
}
